Assays:
[1] = target: T1, Mer extracellular domain (EC-Mer) (UniProt Q12866 Q12866:21-505); experiment: filter; no Kd calculable up to 1000 nM protein; no binding or affinity at least 10^3 lower; PBS, 0.01% BSA, 37 C; details: tags: soluble extracellular domain, R&D Systems; label: 5'-32P
T1 sequence: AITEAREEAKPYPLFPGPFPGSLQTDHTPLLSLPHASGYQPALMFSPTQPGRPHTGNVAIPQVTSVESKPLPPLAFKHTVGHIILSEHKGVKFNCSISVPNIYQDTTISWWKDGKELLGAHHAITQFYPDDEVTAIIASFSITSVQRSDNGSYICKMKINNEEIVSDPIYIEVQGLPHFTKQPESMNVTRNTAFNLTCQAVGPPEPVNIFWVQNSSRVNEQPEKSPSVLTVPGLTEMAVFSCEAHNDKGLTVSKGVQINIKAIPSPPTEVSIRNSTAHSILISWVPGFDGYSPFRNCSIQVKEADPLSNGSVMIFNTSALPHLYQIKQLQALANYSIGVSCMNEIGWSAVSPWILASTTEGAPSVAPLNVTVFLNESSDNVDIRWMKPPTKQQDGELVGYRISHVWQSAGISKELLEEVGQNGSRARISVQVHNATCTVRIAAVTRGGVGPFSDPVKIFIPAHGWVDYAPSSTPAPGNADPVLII
Protocol: (§1) 1 nM of radiolabelled aptamers (GL21 52-85 or Unrelated) were incubated with 1, 3.2, 10, 32, 100, 320 and 1000 nM of Axl, Dtk, Mer soluble extracellular domain (all from R&D Systems, Minneapolis, Minn.) for 15 min at 37° in phosphate-buffered saline (PBS) supplemented with 0.01% bovine serum albumin.
(§2) After incubation, the aptamer-protein mix was passed through nitrocellulose membrane filter (Millipore Co., Bedford, Mass.) and filters were counted.

[2] = target: Axl receptor tyrosine kinase (cell surface) (Homo sapiens, UniProt P30530 P30530:26-894); experiment: binding to Axl-positive U87MG cells; reduced by Axl shRNA; binds Axl-transfected SKBr3 but not parental SKBr3; details: label: 5'-32P
[3] = target: Axl extracellular domain (EC-Axl) (UniProt P30530 P30530:26-451); experiment: filter; PBS, 0.01% BSA, 37 C, 15 min; unrelated aptamer background subtracted; details: tags: soluble extracellular domain, R&D Systems; label: 5'-32P
Protocol: as §1, §2

[4] = target: T2, Dtk (Tyro3) extracellular domain (EC-Dtk) (UniProt Q06418 Q06418:41-429); experiment: as above; details: tags: soluble extracellular domain, R&D Systems; label: 5'-32P
T2 sequence: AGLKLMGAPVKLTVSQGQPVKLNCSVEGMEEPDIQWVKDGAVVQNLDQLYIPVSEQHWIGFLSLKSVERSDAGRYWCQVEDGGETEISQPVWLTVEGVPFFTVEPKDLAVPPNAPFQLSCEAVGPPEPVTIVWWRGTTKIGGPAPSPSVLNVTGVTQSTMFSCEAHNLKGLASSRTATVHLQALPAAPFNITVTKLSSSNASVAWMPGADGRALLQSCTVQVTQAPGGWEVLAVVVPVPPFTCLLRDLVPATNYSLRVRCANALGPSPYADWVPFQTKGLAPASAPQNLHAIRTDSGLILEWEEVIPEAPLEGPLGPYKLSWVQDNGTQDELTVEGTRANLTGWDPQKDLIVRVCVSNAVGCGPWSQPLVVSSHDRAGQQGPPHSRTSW
Protocol: as §1, §2

Sequence of Axl extracellular domain (EC-Axl) (P30530 26-451, one chain of several): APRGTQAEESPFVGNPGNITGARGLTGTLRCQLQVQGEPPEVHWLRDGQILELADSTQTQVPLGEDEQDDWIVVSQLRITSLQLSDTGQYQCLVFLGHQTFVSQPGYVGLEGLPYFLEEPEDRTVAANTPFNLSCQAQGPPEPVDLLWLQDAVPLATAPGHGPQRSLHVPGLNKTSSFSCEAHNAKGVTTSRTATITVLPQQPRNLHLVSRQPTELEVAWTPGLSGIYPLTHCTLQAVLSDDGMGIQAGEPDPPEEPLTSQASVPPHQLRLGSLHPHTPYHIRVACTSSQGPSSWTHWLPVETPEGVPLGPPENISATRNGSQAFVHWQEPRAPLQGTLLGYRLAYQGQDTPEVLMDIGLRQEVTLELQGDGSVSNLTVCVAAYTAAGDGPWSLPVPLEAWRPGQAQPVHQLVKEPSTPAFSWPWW
Sequence of Axl receptor tyrosine kinase (cell surface) (P30530 26-894, one chain of several): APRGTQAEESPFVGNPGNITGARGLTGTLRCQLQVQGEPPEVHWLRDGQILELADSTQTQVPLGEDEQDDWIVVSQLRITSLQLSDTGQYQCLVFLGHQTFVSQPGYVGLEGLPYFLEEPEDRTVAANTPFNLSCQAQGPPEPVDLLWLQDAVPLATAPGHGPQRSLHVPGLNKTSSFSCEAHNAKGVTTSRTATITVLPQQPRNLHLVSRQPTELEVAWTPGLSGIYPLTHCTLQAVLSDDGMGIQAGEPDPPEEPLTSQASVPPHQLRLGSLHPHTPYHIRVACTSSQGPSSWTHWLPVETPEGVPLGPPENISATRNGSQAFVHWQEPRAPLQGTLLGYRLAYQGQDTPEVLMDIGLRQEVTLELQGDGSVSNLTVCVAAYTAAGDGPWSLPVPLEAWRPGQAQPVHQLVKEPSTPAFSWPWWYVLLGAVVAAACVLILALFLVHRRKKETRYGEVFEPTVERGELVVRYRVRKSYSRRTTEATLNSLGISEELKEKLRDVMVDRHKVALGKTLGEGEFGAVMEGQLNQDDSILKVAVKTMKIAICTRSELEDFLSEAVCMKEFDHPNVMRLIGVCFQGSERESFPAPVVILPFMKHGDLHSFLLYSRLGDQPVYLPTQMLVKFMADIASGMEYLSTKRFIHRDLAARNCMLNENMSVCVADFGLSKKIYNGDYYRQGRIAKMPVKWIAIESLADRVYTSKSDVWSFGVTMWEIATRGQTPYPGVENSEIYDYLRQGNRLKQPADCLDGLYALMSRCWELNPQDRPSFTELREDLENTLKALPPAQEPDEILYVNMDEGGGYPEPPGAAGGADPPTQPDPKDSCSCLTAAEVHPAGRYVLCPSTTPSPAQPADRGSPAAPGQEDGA

Binder: AUGAUCAAUCGCCUCAAUUCGACAGGAGGCUCAC (ssRNA, 2'-F on all pyrimidines) [GL21 52-85 (GL21.T)]
- binding result [1]: no binding
- Kd [2]: 90 nM
- Kd [3]: 13 nM
- Kd [4]: 47 nM

Reference: patent US20130197070, “AXL RECEPTOR TYROSINE KINASE APTAMER INHIBITOR FOR USE IN THERAPY” (CNR - CONSIGLIO NAZIONALE DELLE RICERCHE, published 2013)
